Earlier results in paper PMC10651775 (Blood, 2022).

System: R/R ATL
Conditions: phase 2 study (3/12); cited from earlier work

B1: mogamulizumab: defucosylated anti-CCR4 antibody (antibody, chains of the INN, looked up, V domains shown)
VH: EVQLVESGGDLVQPGRSLRLSCAASGFIFSNYGMSWVRQAPGKGLEWVATISSASTYSYYPDSVKGRFTISRDNAKNSLYLQMNSLRVEDTALYYCGRHSDGNFAFGYWGQGTLVTVSS
VL: DVLMTQSPLSLPVTPGEPASISCRSSRNIVHINGDTYLEWYLQKPGQSPQLLIYKVSNRFSGVPDRFSGSGSGTDFTLKISRVEAEDVGVYYCFQGSLLPWTFGQGTKVEIK
In the case of B1, the “ORR in nodal or extranodal lesions” value is given as 25%.
